Blank lines part the entries; values can stand above or below the binder they belong to.
Legend:
[1] = biological target: the molecule itself; assay: fluorescent foci in HEK293 cells co-expressing PB1-mAG1-FKBP12, 500 nM rapamycin; homodimer formation of CD80
Procedure: (§1) (A) CD80-FRB and PB1-mAG1-FKBP12; and [0651] (B) CD2-FRB and PB1-mAG1-FKBP12.
(§2) Specifically, first, HEK293 cells were cultured in a culture solution (DMEM high glucose, 10% FBS, 1% penicillin-streptomycin). Then, on the day before the transfection, the cells were seeded onto an 8-well chamber, and cultured in 100 μL of the culture solution per well. Subsequently, a DNA solution prepared by mixing 200 ng of each of the plasmids was diluted with 10 μL of OptiMEM. Thereafter, 0.8 μL of Fugene HD was added thereto and then stirred. The resultant was further mixed with 90 μl of the culture solution. After that, the obtained mixture solution was added to the cultured cells and cultured for 20 hours.

[2] = biological target: the molecule itself; assay: fluorescent foci in HEK293 cells co-expressing PB1-mAG1-FKBP12, 500 nM rapamycin; negative control for homodimer formation
Procedure: as §1, §2

mAG1-Cyclin D1 = biological target: T1, mAG1-Cyclin D1 (UniProt P24385 1-295); assay: fluorescent foci in HEK293 cells expressing mAG1-Cyclin D1, p21-PB1 and CDK4-PB1
T1 construct: whole, on cells; also called hmAG1-Cyclin D1
T1 sequence (P24385 other isoform, or with tags, fused parts or gaps): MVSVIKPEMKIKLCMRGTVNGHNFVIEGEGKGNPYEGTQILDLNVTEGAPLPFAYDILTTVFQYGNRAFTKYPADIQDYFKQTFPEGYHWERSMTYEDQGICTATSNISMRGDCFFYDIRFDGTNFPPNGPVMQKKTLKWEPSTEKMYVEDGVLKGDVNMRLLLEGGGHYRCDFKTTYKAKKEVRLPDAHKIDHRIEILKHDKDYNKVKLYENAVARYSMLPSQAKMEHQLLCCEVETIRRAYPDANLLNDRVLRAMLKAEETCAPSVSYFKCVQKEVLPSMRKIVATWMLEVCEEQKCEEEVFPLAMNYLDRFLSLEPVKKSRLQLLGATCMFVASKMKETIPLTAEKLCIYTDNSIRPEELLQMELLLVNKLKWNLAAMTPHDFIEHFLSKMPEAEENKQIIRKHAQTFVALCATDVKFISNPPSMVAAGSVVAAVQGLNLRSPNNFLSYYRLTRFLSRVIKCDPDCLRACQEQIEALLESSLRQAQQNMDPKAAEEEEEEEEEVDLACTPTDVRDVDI

B1: CD80-FRB (other, not shown: small tags and cut ends)
chain: VIHVTKEVKEVATLSCGHNVSVEELAQTRIYWQKEKKMVLTMMSGDMNIWPEYKNRTIFDITNNLSIVILALRPSDEGTYECVVLKYEKDAFKREHLAEVTLSVKADFPTPSISDFEIPTSNIRRIICSTSGGFPEPHLSWLENGEELNAINTTVSQDPETELYAVSSKLDFNMTTNHSFMCLIKYGHLRVNQTFNWNTTKQEHFPDNLLPSWAITLISVNGIFVICCLTYCFAPRCRERRRNERLRRESVRPVEMWHEGLEEASRLYFGERNVKGMFEVLEPLHAMMERGPQTLKETSFNQAYGRDLMEAQEWCRKYMKSGNVKDLTQAWDLYYHVFRRISKQ
notes: whole, on cells; In the assay it was joined by rapamycin to PB1-mAG1-FKBP12
- binding result [1]: binds

B2: CD2-FRB (other, not shown: small tags and cut ends)
chain: KEITNALETWGALGQDINLDIPSFQMSDDIDDIKWEKTSDKKKIAQFRKEKETFKEKDTYKLFKNGTLKIKHLKTDDQDIYKVSIYDTKGKNVLEKIFDLKIQERVSKPKISWTCINTTLTCEVMNGTDPELNLYQDGKHLKLSQRVITHKWTTSLSAKFKCTAGNKVSKESSVEPVSCPEKGLDIYLIIGICGGGSLLMVFVALLVFYITKRKKQRSRRNDEELETRAHRVATEERGRKPHQIPASTPQNPATSQHPPPPPGHRSQAPSHRPPPPGHRVQHQPQKRPPAPSGTQVHQQKGPPLPRPRVQPKPPHGAAENSLSPSSNEMWHEGLEEASRLYFGERNVKGMFEVLEPLHAMMERGPQTLKETSFNQAYGRDLMEAQEWCRKYMKSGNVKDLTQAWDLYYHVFRRISKQ
notes: whole, on cells
- binding result [2]: no binding

- binding result (mAG1-Cyclin D1): binds
B3: CDK4-PB1 (other, not shown: small tags and cut ends)
chain: ATSRYEPVAEIGVGAYGTVYKARDPHSGHFVALKSVRVPNGGGGGGGLPISTVREVALLRRLEAFEHPNVVRLMDVCATSRTDREIKVTLVFEHVDQDLRTYLDKAPPPGLPAETIKDLMRQFLRGLDFLHANCIVHRDLKPENILVTSGGTVKLADFGLARIYSYQMALTPVVVTLWYRAPEVLLQSTYATPVDMWSVGCIFAEMFRRKPLFCGNSEADQLGKIFDLIGLPPEDDWPRDVSLPRGAFPPRGPRPVQSVVPEMEESGAQLLLEMLTFNPHKRISAFRALQHSYLHKDEGNPEMASLTVKAYLLGKEDAAREIRRFSFCCSPEPEAEAEAAAGPGPCERLLSRVAALFPALRPGGFQAHYRDEDGDLVAFSSDEELTMAMSYVKDDIFRIYIKEK
notes: whole, on cells
